Data taken from US20040229797A1.

Target: HA-tagged Filamin 1 (HA-Filamin 1)
Assay: cell-based or functional assay

- relative amount of recombinant Filamin 1 and GFP: 1.8
Substance: S-FILIP (short form Filamin-interacting protein) (from UniProt Q8K4T4 248-965)
